Test [1] deals with fatty acid transporter (CD36 and FATP4). Briefly: Real-time PCR of fatty acid transporter expression in cardiac myoblasts. The test is classed as cell-based. The settings on record: ApoO cells vs control (FIG. 6A-B). An excerpt: After ethical committee approval, all patients in this study gave written consent for sample collection and molecular analysis prior to inclusion. Patients were carefully selected by physicians from the Department of Cardiology, Toulouse University Hospital, prior to coronary by-pass surgery. Bioinformatics. Microarray expression data from human heart samples were downloaded from the GEO repository (GSE1145). This series consisted of 107 myocardial samples collected from patients undergoing cardiac transplantation whose failure arises from different etiologies (e.g. idiopathic dilated cardiomyopathy, ischemic cardiomyopathy, valvular cardiomyopathy, and hypertrophic cardiomyopathy) and from “normal” organ donors whose hearts cannot be used for transplants. Arrays were intensity normalized and hierarchical clustering (average group linkage, Pearson correlation, threshold r=0.8) was applied to identify groups of co-expressed genes. […] All ApoO sequences within the expression vectors were verified by DNA double strand sequencing using ABI PRISM®BigDye™ Terminator version 3.1 Ready reaction cycle sequencing kit (Life Technologies SAS, Villebon sur Yvette) and loaded on an ABI 3130XL DNA sequencing instrument (Life Technologies SAS, Villebon sur Yvette). […]
For orientation: In qPCR the cycle at which signal appears reflects the starting amount.

Test [2] deals with glioblastoma cells. The test can be described thus: Transmission electron microscopy of glioblastoma cells. Type of test: cell-based. The procedure: Transmission electron microscopy of control (left) and ApoO expressing (right) cells incubated overnight with 100 μM of palmitate (n=6). Black arrows indicate lipid droplets.
Transmission electron microscopy of control (left) and ApoO expressing (right) cells. Black arrows indicate blebs (n=3).

The values below come from patent publication US10272135B2, “Apolipoprotein O and fragments thereof for inducing apoptosis in a cancerous cell” (INSERM (INSTITUT NATIONAL DE LA SANTÉ ET DE LA RECHERCHE …, priority 2014, dated 2019).

B1: ApoO: 198-amino acid apolipoprotein, SEQ ID NO: 1; tested by overexpression from expression vectors or transgene (protein, listed as Homo sapiens)
chain: MFKVIQRSVGPASLSLLTFKVYAAPKKDSPPKNSVKVDELSLYSVPEGQSKYVEEARSQLEESISQLRHYCEPYTTWCQETYSQTKPKMQSLVQWGLDSYDYLQNAPPGFFPRLGVIGFAGLIGLLLARGSKIKKLVYPPGFMGLAASLYYPQQAIVFAQVSGERLYDWGLRGYIVIEDLWKENFQKPGNVKNSPGTK
For B1, the “fatty acid transporter (CD36 and FATP4) expression” value in test [1] is listed as “strongly increased”. The “apoptosis (membrane blebbing)” value in test [2] (cells which express ApoO vs cells which do not (FIG. 16)) was “apoptosis occurs”. In addition, the mitochondrial morphology result in test [2] (expression or overexpression of ApoO in glioblastoma cells) is given as “development of abnormal mitochondria”. Further, in test [2] (glioblastoma cells expressing ApoO, in the presence of palmitate (FIG. 15)), the lipid accumulation result is given as “lipid accumulate”.
